Assay results: patent US6843989 (Seagen, dated 2005)

Experiments:
[1] = molecular target: T1, CD40 expressed on the surface of B cells (human, UniProt P25942 21-277); experiment: flow cytometry; soluble CD40L titrated on Ramos B cells
[2] = molecular target: T1, CD40 expressed on the surface of B cells; experiment: cell-based or functional assay

T1 sequence (P25942 21-277): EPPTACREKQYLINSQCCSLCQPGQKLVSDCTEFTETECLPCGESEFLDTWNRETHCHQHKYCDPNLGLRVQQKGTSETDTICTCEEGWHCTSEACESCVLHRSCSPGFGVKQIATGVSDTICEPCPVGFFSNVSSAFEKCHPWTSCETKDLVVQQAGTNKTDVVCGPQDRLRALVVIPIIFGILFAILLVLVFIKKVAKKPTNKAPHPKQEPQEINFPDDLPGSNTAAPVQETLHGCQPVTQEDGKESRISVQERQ

“recombinant human soluble CD40 ligand (CD154-muCD8), FITC-labeled (from UniProt P29965 47-261; P27548 47-260)” gave a saturation concentration [1] of 10 µg/mL.

B1: monoclonal antibody S2C6 (antibody, V domains shown)
VH: EVQLQQSGPDLVKPGASVKISCKASGYSFTGYYIHWVKQSHGKSLEWIGRVIPNNGGTSYNQKFKGKAILTVDKSSSTAYMELRSLTSEDSAVYYCAREGIYWWGHGTTLTVSS
VL: DVVVTQTPLSLPVSLGAQASISCRSSQSLVHSNGNTFLHWYLQKPGQSPKLLIYTVSNRFSGVPDRFSGSGSGTDFTLKISRVEAEDLGVYFCSQTTHVPWTFGGGTKLEIQ
For B1, the “B cell proliferation (3H-thymidine incorporation) with CD40L+ T cell titration and 30 ng/ml mAb, over mAb-only stimulation” value [2] was 3 fold and the “B cell proliferation of primary human peripheral blood B cells with CD40L+ stimulator cells at 4:1 (B:T), against mAb alone” value [2] was 16.2 fold.

B2: anti-CD40 mAb G28-5 (antibody, V domains shown)
VH: DIQLQQSGPGLVKPSQSLSLTCSVTGYSITTNYNWNWIRQFPGNKLEWMGYIRYDGTSEYTPSLKNRVSITRDTSMNQFFLRLTSVTPEDTATYYCARLDYWGQGTSVTVSS
VL: DAVMTQNPLSLPVSLGDEASISCRSSQSLENSNGNTFLNWFFQKPGQSPQLLIYRVSNRFSGVPDRFSGSGSGTDFTLKISRVEAEDLGVYFCLQVTHVPYTFGGGTTLEIK
In the case of B2, the “B cell proliferation (3H-thymidine incorporation) with CD40L+ T cell titration and 30 ng/ml mAb, over the level with mAb alone” value [2] is reported as 1.3 fold and the “activation (proliferation) of primary human peripheral blood B cells with CD40L+ stimulator cells at 4:1 (B:T), against mAb alone” value [2] is reported as 2 fold.
